In PMC10879569, “Major cardiovascular events under biologic psoriasis therapies: a 19-year real-world analysis of FAERS data” (Frontiers in Immunology, 2024):

How the values were obtained:
[1] = test system: active psoriatic arthritis; conditions: in vivo; cited from earlier work
psoriasis = conditions: in vivo; cited from earlier work
[2] = in vivo; cited from earlier work
[3] = test system: patients with psoriasis indication; assay: FAERS disproportionality analysis (PRR and MGPS/EBGM) of MACEs reporting versus other psoriasis treatments; format: in vivo; conditions: compared among the biological classes
Source text: FAERS collects […] of drug adverse events reports worldwide submitted by health professionals, consumers, and manufacturers. We chose the FAERS dataset as the data source for this study, and the analytical period was from January 2004 to December 2022. To enhance the reliability and validity of our results, only records submitted by professional health workers (e.g., physicians, pharmacists, and other health professionals) were included. To avoid potential confounders in causality assessments such as indication, the analysis was refined by retaining only reports with an expanded psoriasis indication. The raw FAERS data were cleaned, mapped, de-duplicated, and normalized by SQL server Data Mining.
The names are listed in Supplementary Table S1 .
Inclusion of reports was limited to only those cases where a biologic drug was identified as “the primary suspect” or”secondary suspect”. The control groups were comprised of the population who were indicated with psoriasis and receiving other psoriasis systemic therapies except biological agents. […]
This study is a case–non-case study. […] Disproportionality analysis (proportional reporting ratio, PRR) and MGPS were calculated to identify drug–event combinations with reporting rates higher than expected versus other drugs among patients with psoriasis indication. […]

[4] = parameters: method as in PMID 22011907, PMID 21862748; conditions: 2011; cited from earlier work

Adalimumab
MACEs reported in the treatment group [1]: none

Ixekizumab
MACEs events reported in the treatment group (psoriasis): two

Risankizumab
cardiac disorders as share of serious adverse events suspected of being caused by the drug [2]: 10.9%

Secukinumab
MACEs reported in the treatment group [1]: two

Ustekinumab
reporting rate for the four SMQs (myocardial infarction, stroke, cardiac fatality, death) [3]: highest reporting rate for all four SMQs

briakinumab
fate of clinical trials after reports of serious cardiovascular adverse events (e.g., myocardial infarction, cardiac death) [4]: discontinued before marketing
